This note sets out measurements from article PMC10891134, “Bacteria employ lysine acetylation of transcriptional regulators to adapt gene expression to cellular metabolism” (Nature Communications, 2024).

By Kd is commonly meant the constant that tells how readily two partners part at equilibrium.

Data set [1] addresses RutR AcK7 K7AcK (Escherichia coli K12?) (UniProt P0ACU2). Kind of data set: SPR. To be noted: ITC: 100 mM potassium phosphate pH 6.4, 150 mM NaCl, 5 mM MgCl2, 2 mM b-ME, 20 or 25 C; SPR: 100 mM potassium phosphate pH 6.4, 300 mM NaCl, 0.05% Tween20 ….
Data set [2] has as its target RutR AcK7/11 K7AcK;K11AcK (Escherichia coli K12?) (UniProt P0ACU2). The data set can be described thus: SPR. To be noted: ITC: 100 mM potassium phosphate pH 6.4, 150 mM NaCl, 5 mM MgCl2, 2 mM b-ME, 20 or 25 C; SPR: 100 mM potassium phosphate pH 6.4, 300 mM NaCl, 0.05% Tween20 ….
For data set [3], the target named is RutR AcK11 K11AcK (Escherichia coli K12?) (UniProt P0ACU2). The data set can be described thus: ITC. As to conditions: ITC: 100 mM potassium phosphate pH 6.4, 150 mM NaCl, 5 mM MgCl2, 2 mM b-ME, 20 or 25 C; SPR: 100 mM potassium phosphate pH 6.4, 300 mM NaCl, 0.05% Tween20 ….
In data set [4] the target is RutR AcK150 K150AcK (Escherichia coli K12?) (UniProt P0ACU2). The data set can be described thus: ITC. To be noted: ITC: 100 mM potassium phosphate pH 6.4, 150 mM NaCl, 5 mM MgCl2, 2 mM b-ME, 20 or 25 C; SPR: 100 mM potassium phosphate pH 6.4, 300 mM NaCl, 0.05% Tween20 ….
For data set [5], the target named is RutR AcK21 K21AcK (Escherichia coli K12?) (UniProt P0ACU2). The data set can be described thus: ITC. As to conditions: ITC: 100 mM potassium phosphate pH 6.4, 150 mM NaCl, 5 mM MgCl2, 2 mM b-ME, 20 or 25 C; SPR: 100 mM potassium phosphate pH 6.4, 300 mM NaCl, 0.05% Tween20 ….
The target in data set [6] is RutR AcK62 K62AcK (Escherichia coli K12?) (UniProt P0ACU2). The data set can be described thus: ITC. To be noted: ITC: 100 mM potassium phosphate pH 6.4, 150 mM NaCl, 5 mM MgCl2, 2 mM b-ME, 20 or 25 C; SPR: 100 mM potassium phosphate pH 6.4, 300 mM NaCl, 0.05% Tween20 ….
For data set [7], the target named is RutR AcK7 K7AcK (Escherichia coli K12?) (UniProt P0ACU2). The data set can be described thus: ITC. As to conditions: ITC: 100 mM potassium phosphate pH 6.4, 150 mM NaCl, 5 mM MgCl2, 2 mM b-ME, 20 or 25 C; SPR: 100 mM potassium phosphate pH 6.4, 300 mM NaCl, 0.05% Tween20 ….
In data set [8] the target is RutR AcK7/11 K7AcK;K11AcK (Escherichia coli K12?) (UniProt P0ACU2). The data set can be described thus: ITC. To be noted: ITC: 100 mM potassium phosphate pH 6.4, 150 mM NaCl, 5 mM MgCl2, 2 mM b-ME, 20 or 25 C; SPR: 100 mM potassium phosphate pH 6.4, 300 mM NaCl, 0.05% Tween20 ….
Data set [9] concerns the target RutR AcK95 K95AcK (Escherichia coli K12?) (UniProt P0ACU2). Kind of data set: ITC. To be noted: ITC: 100 mM potassium phosphate pH 6.4, 150 mM NaCl, 5 mM MgCl2, 2 mM b-ME, 20 or 25 C; SPR: 100 mM potassium phosphate pH 6.4, 300 mM NaCl, 0.05% Tween20 ….
In data set [10] the target is T1, RutR WT (UniProt P0ACU2 1-212).
T1 sequence: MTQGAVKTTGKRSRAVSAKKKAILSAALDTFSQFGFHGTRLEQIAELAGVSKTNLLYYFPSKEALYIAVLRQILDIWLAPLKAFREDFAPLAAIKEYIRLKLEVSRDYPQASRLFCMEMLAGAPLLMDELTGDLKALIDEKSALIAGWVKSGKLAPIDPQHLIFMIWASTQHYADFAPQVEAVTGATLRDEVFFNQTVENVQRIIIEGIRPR
The data set can be described thus: SPR; ITC: 100 mM potassium phosphate pH 6.4, 150 mM NaCl, 5 mM MgCl2, 2 mM b-ME, 20 or 25 C; SPR: 100 mM potassium phosphate pH 6.4, 300 mM NaCl, 0.05% Tween20, 25 C; EMSA: 20 mM Tris-HCl pH 7.5, 100 mM KCl, 2 mM DTT, 10% glycerol, 25 nM DNA, 30 C. To be noted: protein: recombinant; tags: His6; chain copies: 2; blunt.

For “GTTTTATGTGCAACTGTTTTGACCGTTTAGTCCACTTTTTACCAGATATTTTAG (double strand) [biotin-boxrutA]”, the values for the Kd in [1] and in [2] were 9.06 nM and 76.2 nM, respectively.
As for “GTTTTAATGTAAATTTTGACCATTTGGTCCACTTTTTTCTGCTCGT (double strand) [boxcarA]”, the Kd in data set [3] came out at 82 nM; in data set [4], 40 nM; in [5] it was 12 nM; in [6] it was 1120 nM; in data set [7], 73 nM; in data set [8], 300 nM. The molecule further yielded a dissociation constant (Kd) in data set [9] of 19 nM.

B1: biotin-boxrutA (dsDNA)
DNA 1: GTTTTATGTGCAACTGTTTTGACCGTTTAGTCCACTTTTTACCAGATATTTTAG
DNA 2: CTAAAATATCTGGTAAAAAGTGGACTAAACGGTCAAAACAGTTGCACATAAAAC
Regarding B1, in [10], the Kd came out at 4.27 ± 1.19 nM.
